Results published in PMC10786891, “Massively parallel profiling of RNA-targeting CRISPR-Cas13d”.
Positions count from the first letter of the chain named. Numbers in names are those of the source.

T1: EsCas13d, nuclease-dead (Eubacterium siraeum, UniProt B0MS50, R295A;H300A;R849A;H854A)
T1 sequence: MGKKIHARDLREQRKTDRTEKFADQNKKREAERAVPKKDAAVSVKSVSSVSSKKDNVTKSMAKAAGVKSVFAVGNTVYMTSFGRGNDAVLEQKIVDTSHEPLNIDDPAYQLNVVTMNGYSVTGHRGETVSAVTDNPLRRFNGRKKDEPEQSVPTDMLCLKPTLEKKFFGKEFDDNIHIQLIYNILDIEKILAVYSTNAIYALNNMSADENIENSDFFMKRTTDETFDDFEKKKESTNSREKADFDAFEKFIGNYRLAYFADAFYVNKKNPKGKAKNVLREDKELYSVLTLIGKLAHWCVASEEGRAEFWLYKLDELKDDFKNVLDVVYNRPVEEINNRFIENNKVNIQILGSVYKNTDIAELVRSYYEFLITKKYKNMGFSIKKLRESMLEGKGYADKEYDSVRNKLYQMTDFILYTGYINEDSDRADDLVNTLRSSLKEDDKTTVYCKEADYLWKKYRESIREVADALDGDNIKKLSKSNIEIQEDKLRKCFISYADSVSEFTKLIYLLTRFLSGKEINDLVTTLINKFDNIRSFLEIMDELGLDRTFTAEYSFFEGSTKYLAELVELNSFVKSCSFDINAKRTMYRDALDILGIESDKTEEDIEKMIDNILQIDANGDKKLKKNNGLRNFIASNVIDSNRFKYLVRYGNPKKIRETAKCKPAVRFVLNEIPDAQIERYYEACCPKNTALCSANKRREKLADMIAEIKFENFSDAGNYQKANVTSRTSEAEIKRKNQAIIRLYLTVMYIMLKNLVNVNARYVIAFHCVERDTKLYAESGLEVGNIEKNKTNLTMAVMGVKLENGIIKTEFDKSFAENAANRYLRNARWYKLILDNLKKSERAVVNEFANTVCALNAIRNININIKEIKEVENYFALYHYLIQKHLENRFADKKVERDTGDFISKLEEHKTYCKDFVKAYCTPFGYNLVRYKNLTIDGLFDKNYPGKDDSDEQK

B1: target 3 G3A,U22A (mixed)
RNA 1: CACCCGUGCAAAAUUGCAGGGGUCUAAAACGACCUGAAUAUUUCAGAUCAAA
RNA 2: GGGAAUGGAUCCACAUCUACGAAUUCGUUAUUGAUCUGAAAUAUUCAGAUCUGCAGAUCGGAAGAGCACACGU
B2: target 3 insA 3' of 22,insU 3' of 16 (mixed)
RNA 1: B1 RNA 1
RNA 2: GGGAAUGGAUCCACAUCUACGAAUUCGUUUAUUGAUCUUGAAAUAUUCAGGUCUGCAGAUCGGAAGAGCACACGU
B3: target 3 G19U,U22G (mixed)
RNA 1: B1 RNA 1
RNA 2: B1 RNA 2 with A30G, G33U, A49G
B4: target 3 G4U,U21A (mixed)
RNA 1: B1 RNA 1
RNA 2: B1 RNA 2 with A30U, U31A, G48U, A49G
B5: target 3 insC 3' of 4,insC 3' of 2 (mixed)
RNA 1: B1 RNA 1
RNA 2: GGGAAUGGAUCCACAUCUACGAAUUCGUUUUUGAUCUGAAAUAUUCAGCGUCCUGCAGAUCGGAAGAGCACACGU
B6: target 3 U2A,U20C (mixed)
RNA 1: B1 RNA 1
RNA 2: B1 RNA 2 with A30U, U32C, A49G, U50A
B7: target 3 insU 3' of 5,insG 3' of 2 (mixed)
RNA 1: B1 RNA 1
RNA 2: B5 RNA 2 with G48U, C49G, C52G
B8: target 3 C6A,A11C (mixed)
RNA 1: B1 RNA 1
RNA 2: B1 RNA 2 with A30U, A41C, C46A, A49G
B9: target 3 insA 3' of 10,insA 3' of 7 (mixed)
RNA 1: B1 RNA 1
RNA 2: B5 RNA 2 with U44A, C46U, G48C, C49A, U51G, C52U
B10: target 3 del6,del8 (mixed)
RNA 1: B1 RNA 1
RNA 2: GGGAAUGGAUCCACAUCUACGAAUUCGUUUUUGAUCUGAAAUAUAGGUCUGCAGAUCGGAAGAGCACACGU
B11: target 3 insG 3' of 8,insC 3' of 7 (mixed)
RNA 1: B1 RNA 1
RNA 2: B5 RNA 2 with U45G, C46U, A47C, G48C, C49A, U51G, C52U
B12: target 3 del1,del2 (mixed)
RNA 1: B1 RNA 1
RNA 2: B10 RNA 2 with A45U, G46C, G47A, U48G, C49G
B13: target 3 insA 3' of 3,insC 3' of 2 (mixed)
RNA 1: B1 RNA 1
RNA 2: B5 RNA 2 with C49G, G50A
B14: target 3 insG 3' of 9,insU 3' of 3 (mixed)
RNA 1: B1 RNA 1
RNA 2: B5 RNA 2 with U44G, C46U, A47C, G48A, C49G, C52U
B15: target 3 insG 3' of 5,insG 3' of 2 (mixed)
RNA 1: B1 RNA 1
RNA 2: B5 RNA 2 with C49G, C52G
B16: target 3 insG 3' of 5,insC 3' of 5 (mixed)
RNA 1: B1 RNA 1
RNA 2: B5 RNA 2 with U51G, C52U
B17: target 3 del1,del14 (mixed)
RNA 1: B1 RNA 1
RNA 2: B10 RNA 2 with G38A, A41U, U42A, A43U, A45C, G46A, U48G, C49U
B18: target 3 insC 3' of 7,insA 3' of 6 (mixed)
RNA 1: B1 RNA 1
RNA 2: B5 RNA 2 with A47C, G48A, C49A, U51G, C52U
B19: target 3 insU 3' of 6,insC 3' of 3 (mixed)
RNA 1: B1 RNA 1
RNA 2: B5 RNA 2 with A47U, G48A, C49G, U51C, C52U
B20: target 3 G4A,C6U (mixed)
RNA 1: B1 RNA 1
RNA 2: B1 RNA 2 with A30U, C46U, G48A, A49G
B21: target 3 C1A,G14U (mixed)
RNA 1: B1 RNA 1
RNA 2: B1 RNA 2 with A30U, G38U, A49G, C51A
B22: target 3 A5U,A11G (mixed)
RNA 1: B1 RNA 1
RNA 2: B1 RNA 2 with A30U, A41G, A47U, A49G
B23: target 3 G3A,G4A (mixed)
RNA 1: B1 RNA 1
RNA 2: B1 RNA 2 with A30U, G48A
B24: target 3 C6U (mixed)
RNA 1: B1 RNA 1
RNA 2: B1 RNA 2 with A30U, C46U, A49G
B25: target 3 insC 3' of 4,insA 3' of 1 (mixed)
RNA 1: B1 RNA 1
RNA 2: B5 RNA 2 with C53A
B26: target 3 insC 3' of 8,insG 3' of 5 (mixed)
RNA 1: B1 RNA 1
RNA 2: B5 RNA 2 with U45C, C46U, A47C, G48A, C49G, U51G, C52U
B27: target 3 G4C,U7A (mixed)
RNA 1: B1 RNA 1
RNA 2: B1 RNA 2 with A30U, U45A, G48C, A49G
B28: target 3 insA 3' of 6,insU 3' of 4 (mixed)
RNA 1: B1 RNA 1
RNA 2: B5 RNA 2 with G48A, C49G, G50U, U51G, C52U
B29: target 3 insA 3' of 19 (mixed)
RNA 1: B1 RNA 1
RNA 2: GGGAAUGGAUCCACAUCUACGAAUUCGUUUUUGAAUCUGAAAUAUUCAGGUCUGCAGAUCGGAAGAGCACACGU
B30: target 3 insG 3' of 6,insG 3' of 6 (mixed)
RNA 1: B1 RNA 1
RNA 2: B5 RNA 2 with A47G, C49A, U51G, C52U
B31: target 1 C2A,A14G (mixed)
RNA 1: CACCCGUGCAAAAAUGCAGGGGUCUAAAACUGAGCGGAUAACCUCUCUAUGG
RNA 2: GGGAAUGGAUCCACAUCUACGAAUUCGUACCAUAGAGGGGUUAUCCGCUAACCGAGAUCGGAAGAGCACACGU
B32: target 1 insC 3' of 16,insC 3' of 14 (mixed)
RNA 1: B31 RNA 1
RNA 2: GGGAAUGGAUCCACAUCUACGAAUUCGUACCAUAGACGACGGUUAUCCGCUCACCGAGAUCGGAAGAGCACACGU
B33: target 1 A9G,U10C (mixed)
RNA 1: B31 RNA 1
RNA 2: B31 RNA 2 with G38A, U42C, A43G, A50C

Biological target: T1, EsCas13d, nuclease-dead
Assay: crRNA (strand 1, pre-loaded); Mg2+; 40 mM Tris-HCl pH 7.5, 150 mM NaCl, 6 mM MgCl2, 1 mM DTT, 0.1% Tween-20, 0.2 mg/ml BSA; 25 C; 10 min per concentration, then washed
Conditions: tags: His6-TwinStrep-SUMO cleaved; N-terminal SNAP kept (SNAP-Surface 488); label: 3' end held by stalled T7 RNA polymerase

Binder | Kd [nM]
B1 | 47 ± 10.5
B2 | 71 ± 14
B3 | 108 ± 15
B4 | 20.6 ± 2.15
B5 | 73 ± 24
B6 | 74.5 ± 24
B7 | 6.95 ± 1
B8 | 45.2 ± 11.2
B9 | 52 ± 8
B10 | 70.5 ± 11
B11 | 57 ± 9
B12 | 44.5 ± 2.55
B13 | 120 ± 50
B14 | 43.5 ± 7
B15 | 26.6 ± 4.1
B16 | 32.7 ± 4.05
B17 | 110 ± 55

Binder | Kd [nM]
B18 | 76 ± 14
B19 | 28.6 ± 2.95
B20 | 15.7 ± 1.25
B21 | 79 ± 30.5
B22 | 100 ± 45
B23 | 8.7 ± 0.75
B24 | 13.2 ± 1.05
B25 | 69.5 ± 28.5
B26 | 120 ± 50
B27 | 27.6 ± 3.05
B28 | 2.25 ± 0.23
B29 | 83 ± 21.5
B30 | 23.6 ± 3.2
B31 | 13.5 ± 0.5
B32 | 75 ± 19
B33 | 27.2 ± 1.4
